This data set concerns O=P(O)(O)O[C@@H]1O[C@H](CO)[C@@H](O)[C@H](O)[C@H]1O. In words: purified protein. The settings on record: 5 μM βG1,6bisP, 2 mM MgCl2, 50 mM K+HEPES pH 7.0, 25 °C.
As usually defined, the Km is the substrate concentration at which the rate is half of its maximum. What is called kcat is the maximal rate divided by the concentration of active sites. The kcat/Km is the turnover number divided by the Michaelis constant. With “L. lactis β-PGM (wild type) (Lactococcus lactis subsp. lactis Il1403)”, the Michaelis constant (Km) was determined as 31 ± 2 µM, the turnover number (kcat) is 175 s⁻¹ and the catalytic efficiency (kcat/Km) stood at 6e+06 M⁻¹ s⁻¹.
In the case of “L. lactis β-PGM (wild type) (Lactococcus lactis subsp. lactis Il1403; H20A)”, the Km stood at 41 ± 3 µM, the catalytic constant (kcat) came to 0.026 s⁻¹ and the specificity constant (kcat/Km) stood at 600 M⁻¹ s⁻¹.
“L. lactis β-PGM (wild type) (Lactococcus lactis subsp. lactis Il1403; H20N)”: the Km is 170 ± 10 µM, the catalytic constant (kcat) was determined as 0.62 s⁻¹ and the kcat/Km turned out to be 4000 M⁻¹ s⁻¹.
In the same order, the values of “L. lactis β-PGM (wild type) (Lactococcus lactis subsp. lactis Il1403; H20Q)” are 45 ± 1 µM, 21.9 s⁻¹ and 500000 M⁻¹ s⁻¹.
For the substance “L. lactis β-PGM (wild type) (Lactococcus lactis subsp. lactis Il1403; K76A)”, the Michaelis constant (Km) was 66 ± 1 µM, the turnover number (kcat) came out at 1.56 s⁻¹ and the kcat/Km was 20000 M⁻¹ s⁻¹.
In the same order, the values of “L. lactis β-PGM (wild type) (Lactococcus lactis subsp. lactis Il1403; T16P)” are 4.8 ± 0.3 µM, 0.026 s⁻¹ and 5000 M⁻¹ s⁻¹.

The values are drawn from paper PMC2722939.
